In PMC8626586, “Structure of a bacterial α-1,2-glucosidase defines mechanisms of hydrolysis and substrate specificity in GH65 family hydrolases” (The Journal of Biological Chemistry, 2021):

Assays:
FjGH65A [1] = molecular target: T1, FjGH65A (Flavobacterium johnsoniae, UniProt A5FBJ5); experiment: X-ray crystal structure of the complex, […] Å; format: binding; settings: crystal cryoprotected with 30% (w/v) glucose; four sites: subsites -1, +1, +2 and linker region
T1 construct: gene Fjoh_4428; residues 24-681, signal peptide removed, N-terminal His6 tag (pET28a), E. coli BL21(DE3); hexamer (433 kDa by gel filtration)

[2] = molecular target: FjGH65A (Fjoh_4428), GH65 α-1,2-glucosidase from Flavobacterium johnsoniae (Flavobacterium johnsoniae); experiment: SEC; gel filtration on HiPrep 16/60 Sephacryl S-200 HR, 20 mM sodium citrate buffer (pH 6.0) with 150 mM NaCl; column calibrated with thyroglobulin, ferritin, aldolase, conalbumin and ovalbumin
[3] = molecular target: FjGH65A (Fjoh_4428), GH65 α-1,2-glucosidase from Flavobacterium johnsoniae (Flavobacterium johnsoniae); experiment: crystal structure; space group C2, three monomers (MolA, MolB, MolC) in the asymmetric unit; hexamer by the crystallographic two-fold axis, PISA analysis; native 1.54 Å and glucose complex 1.40 Å
FjGH65A [4] = molecular target: T2, FjGH65A (Flavobacterium johnsoniae, UniProt A5FBJ5, E472Q); experiment: hydrolysis activity; format: biochemical; settings: general acid catalyst mutant
T2 construct: gene Fjoh_4428; residues 24-681, signal peptide removed, N-terminal His6 tag (pET28a), E. coli BL21(DE3); hexamer (433 kDa by gel filtration)

FjGH65A [5] = molecular target: T3, FjGH65A (Flavobacterium johnsoniae, UniProt A5FBJ5, E616Q); experiment: hydrolysis activity; format: biochemical; settings: general base catalyst mutant
T3 construct: gene Fjoh_4428; residues 24-681, signal peptide removed, N-terminal His6 tag (pET28a), E. coli BL21(DE3); hexamer (433 kDa by gel filtration)

[6] = substrate: OC[C@H]1O[C@H](F)[C@H](O)[C@@H](O)[C@@H]1O; experiment: hydrolysis kinetics (assay details for this substrate not stated); format: biochemical, Flavobacterium johnsoniae; settings: kinetic conditions for this substrate not stated
Text: hydrolysis kinetics (assay details for this substrate not stated) on FjGH65A

T3 sequence (A5FBJ5 24-681 E616Q): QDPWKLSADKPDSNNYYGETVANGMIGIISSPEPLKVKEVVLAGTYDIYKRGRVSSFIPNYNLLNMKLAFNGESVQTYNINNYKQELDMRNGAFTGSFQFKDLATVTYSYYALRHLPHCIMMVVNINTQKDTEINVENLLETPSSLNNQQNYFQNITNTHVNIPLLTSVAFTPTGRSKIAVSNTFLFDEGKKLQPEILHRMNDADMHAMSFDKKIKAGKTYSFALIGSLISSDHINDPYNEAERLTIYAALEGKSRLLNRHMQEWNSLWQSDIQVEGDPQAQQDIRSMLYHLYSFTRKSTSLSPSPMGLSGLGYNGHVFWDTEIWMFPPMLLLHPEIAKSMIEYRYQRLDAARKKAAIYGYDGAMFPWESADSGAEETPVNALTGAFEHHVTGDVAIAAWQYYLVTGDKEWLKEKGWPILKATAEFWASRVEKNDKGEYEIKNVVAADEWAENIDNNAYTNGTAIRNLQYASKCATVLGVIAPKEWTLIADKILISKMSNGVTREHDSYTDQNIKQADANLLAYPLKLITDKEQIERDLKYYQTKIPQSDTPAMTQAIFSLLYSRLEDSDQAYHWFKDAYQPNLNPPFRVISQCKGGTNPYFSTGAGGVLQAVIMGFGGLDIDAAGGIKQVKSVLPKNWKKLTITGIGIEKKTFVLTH
T2 sequence (A5FBJ5 24-681 E472Q): as the sequence (A5FBJ5 24-681 E616Q) above, with E449Q, Q593E counted along it

Molecule: OC[C@H]1O[C@@H](O)[C@H](O)[C@@H](O)[C@@H]1O [β-glucose]
- X-ray crystal structure of the complex, 1.40 Å (FjGH65A [1]): Each monomer of FjGH65A binds four β-glucose molecules

Molecule: FjGH65A (Fjoh_4428), GH65 α-1,2-glucosidase from Flavobacterium johnsoniae (enzyme)
- stoichiometry N [2]: 6
- stoichiometry N [3]: 6

Molecule: OC[C@H]1O[C@H](O[C@H]2C(O)O[C@H](CO)[C@@H](O)[C@@H]2O)[C@H](O)[C@@H](O)[C@@H]1O (mixture of isomers) [Kojibiose]
- activity (% of wild type) (FjGH65A [4]): < 0.1%
- activity (% of wild type) (FjGH65A [5]): < 0.1%

B1: FjGH65A (Flavobacterium johnsoniae UW101) (protein)
chain: QDPWKLSADKPDSNNYYGETVANGMIGIISSPEPLKVKEVVLAGTYDIYKRGRVSSFIPNYNLLNMKLAFNGESVQTYNINNYKQELDMRNGAFTGSFQFKDLATVTYSYYALRHLPHCIMMVVNINTQKDTEINVENLLETPSSLNNQQNYFQNITNTHVNIPLLTSVAFTPTGRSKIAVSNTFLFDEGKKLQPEILHRMNDADMHAMSFDKKIKAGKTYSFALIGSLISSDHINDPYNEAERLTIYAALEGKSRLLNRHMQEWNSLWQSDIQVEGDPQAQQDIRSMLYHLYSFTRKSTSLSPSPMGLSGLGYNGHVFWDTEIWMFPPMLLLHPEIAKSMIEYRYQRLDAARKKAAIYGYDGAMFPWESADSGAEETPVNALTGAFEHHVTGDVAIAAWQYYLVTGDKEWLKEKGWPILKATAEFWASRVEKNDKGEYEIKNVVAADEWAENIDNNAYTNGTAIRNLQYASKCATVLGVIAPKEWTLIADKILISKMSNGVTREHDSYTDQNIKQADANLLAYPLKLITDKEQIERDLKYYQTKIPQSDTPAMTQAIFSLLYSRLEDSDQAYHWFKDAYQPNLNPPFRVISECKGGTNPYFSTGAGGVLQAVIMGFGGLDIDAAGGIKQVKSVLPKNWKKLTITGIGIEKKTFVLTH
notes: residues 24-681, signal peptide removed, N-terminal His6 tag (pET28a), E. coli BL21(DE3); hexamer (433 kDa by gel filtration)
- Km [6]: 3.1 ± 0.2 mM
- kcat [6]: 56.1 ± 1.8 s⁻¹
- kcat/Km [6]: 18100 M⁻¹ s⁻¹
